From the RNAGym collection of RNA variant scans (doi:10.1093/nar/gkz1192)

B1: CPEB3 Ribozyme (parent)
chain: UAACAGGGGGCCACAGCAGAAGCGUUCACGUCGCAGCCCCUGUCAGAUUCUGGUGAAUCUGCGAAUUCUGCUGUAUAUCUC

Variants of: B1
Assay: self-cleavage, relative activity (ratio to wild type); higher = more cleavage; in vitro, sequencing
How it was run: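 Barcoded CPEB3 ribozyme mutants, produced by rounds of error-prone PCR, self-cleaved while being transcribed with T7 RNA polymerase for 5 hours at 37°C and during a subsequent 15 min DNase I step before EDTA was added. Sequencing of template-switched cDNA on Illumina gave cleaved and total reads, and DNA sequencing assigned barcodes to variants. Each variant's relative activity is its cleaved/total read fraction divided by the unmutated ribozyme's fraction, averaged across three batches. A variant needed a minimum of 5 reads.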

Row | Variant | self-cleavage
1 | G6U U69C | 0.22
2 | G6U U43C | 0.32
3 | G6U U76C | 0.15
4 | G6U U76A | 0.32
5 | G7A G24A | 0.08
6 | G7A G30A | 0.35
7 | G7A U49C | 0.2
8 | G6U C29U | 0.25
9 | G7C A35G | 0.31
10 | G7C A35C | 0.09
11 | G7A U26A | 0.28
12 | G7A U26C | 0.25
13 | G7A U26G | 0.07
14 | G7A G33U | 0.07
15 | G7A C32U | 0.09
16 | G6U A57G | 0.43
17 | G7A G46A | 0.07
18 | G7A G46U | 0.39
19 | G7A A56G | 0.15
20 | G7A A56U | 0.52
21 | G7A U54C | 0.38
22 | G7A U54A | 0.47
23 | G7A U54G | 0.22
24 | G7A U25A | 0.15

Row | Variant | self-cleavage
25 | G7A U25C | 0.33
26 | G7A U41A | 0.13
27 | G7A U41C | 0.25
28 | G7A A20G | 0.26
29 | G7A A20C | 0.27
30 | G7A A13G | 0.3
31 | G6U U67C | 0.11
32 | G6U U67A | 0.09
33 | G6U A28G | 0.38
34 | G7C C37U | 0.24
35 | G7C A18G | 0.33
36 | G6U A47G | 0.36
37 | G6U A47U | 0.17
38 | G7A U74A | 0.09
39 | G7A U74C | 0.5
40 | G7A U31G | 0.14
41 | G7A U31C | 0.25
42 | G7A G55U | 0.2
43 | G7A G55A | 0.15
44 | G6U A20U | 0.34
45 | G6U A20G | 0.26
46 | G6U C59U | 0.09
47 | G6U G52A | 0.47
48 | G7C A65G | 0.22

Row | Variant | self-cleavage
49 | G7A C59A | 0.04
50 | G6U U48A | 0.16
51 | G6U U48C | 0.13
52 | G6U A77U | 0.16
53 | G6U G8A | 0.23
54 | G7C A56G | 0.23
55 | G7A G53A | 0.19
56 | G7A U43A | 0.32
57 | G7A U43G | 0.15
58 | G7A U43C | 0.21
59 | G6U U49A | 0.38
60 | G6U U49C | 0.22
61 | G6U U58C | 0.16
62 | G7A U51A | 0.35
63 | G7A U51G | 0.1
64 | G7A U51C | 0.2
65 | G7A U58A | 0.27
66 | G7A U58C | 0.13
67 | G6U G10A | 0.34
68 | G7A G8C | 0.15
69 | G7A G10A | 0.24
70 | G7A A57G | 0.12
71 | G6U U26C | 0.38
72 | G6U U26A | 0.13

Row | Variant | self-cleavage
73 | G7C A13U | 0.26
74 | G7C A13G | 0.32
75 | G7C A13C | 0.09
76 | G6U A45G | 0.11
77 | G6U A45U | 0.19
78 | G7C A21G | 0.34
79 | G6U C79A | 0.46
80 | G6U C12U | 0.19
81 | G6U C32U | 0.08
82 | G7A U72C | 0.48
83 | G6U A64G | 0.32
84 | G6U A64U | 0.07
85 | G6U U66A | 0.13
86 | G6U U66C | 0.2
87 | G7A A45G | 0.16
88 | G7A A45U | 0.16
89 | G6U G16C | 0.19
90 | G7A G70C | 0.06
91 | G6U G9A | 0.4
92 | G7C C32U | 0.12
93 | G6U U80A | 0.44
94 | G6U U80C | 0.09
95 | G7A C11G | 0.07
96 | G6U A18U | 0.12

Row | Variant | self-cleavage
97 | G6U A18C | 0.14
98 | G7C A57U | 0.19
99 | G7A U67A | 0.17
100 | G7A U67C | 0.25
101 | G7A U78G | 0.08
102 | G7A U78C | 0.15
103 | G6U G7A | 0.33
104 | G6U C23U | 0.25
105 | G7C A75U | 0.31
106 | G7A A21G | 0.33
107 | G7A C62U | 0.22
108 | G7A U69C | 0.26
109 | G7A U69A | 0.39
110 | G7A A65G | 0.11
111 | G7A A77U | 0.26
112 | G6U U60C | 0.24
113 | G6U U60A | 0.49
114 | G7C A20U | 0.22
115 | G6U U74G | 0.4
116 | G6U A65U | 0.23
117 | G7A A15G | 0.09
118 | G7A A15U | 0.23
119 | G6U A56U | 0.22
120 | G6U A56G | 0.41

Row | Variant | self-cleavage
121 | G6U U78A | 0.79
122 | G7A A28G | 0.16
123 | G7A A28C | 0.2
124 | G6U U25C | 0.37
125 | G6U U41A | 0.35
126 | G6U U51C | 0.36
127 | G7A A47G | 0.09
128 | G6U G73A | 0.57
129 | G6U A35G | 0.41
130 | G6U A35U | 0.36
131 | G6U U72C | 0.37
132 | G7A C12U | 0.07
133 | G7A U80A | 0.25
134 | G7A U80C | 0.29
135 | G7A C29A | 0.36
136 | G7A G73A | 0.48
137 | G7A A18G | 0.25
138 | G7C A64G | 0.35
139 | G7A G16C | 0.23
140 | G7A U48C | 0.16
141 | G7A U48A | 0.31
142 | G7A C40U | 0.3
143 | G7A C40A | 0.18
144 | G6U C71A | 0.16

Row | Variant | self-cleavage
145 | G7A A75G | 0.3
146 | G6U U31C | 0.22
147 | G6U U31A | 0.17
148 | G7C A45G | 0.26
149 | G7A C37A | 0.11
150 | G7A | 0.25
151 | G7C | 0.29
152 | G7C A47G | 0.43
153 | G6U C62G | 0.25
154 | G6U A21C | 0.17
155 | G6U A21G | 0.29
156 | G7A A35U | 0.19
157 | G7A A35G | 0.46
158 | G7A A64U | 0.18
159 | G7A A64G | 0.28
160 | G6U C11A | 0.16
161 | G7C A15U | 0.18
162 | G7C A15G | 0.21
163 | G7A U60C | 0.11
164 | G7A U60A | 0.37
165 | G6U A75G | 0.09
166 | G7A C14A | 0.31
167 | G7A U66C | 0.13
